# Results published in the supplement of paper PMC10724198.
# ± gives the standard deviation of the averaged measurements.
# Test system: Saccharomyces cerevisiae
# Experiment: protein stability index of tFT-peptide fusion (C-terminal peptide) (PSI (0-1 scale)); higher = more stable (slower turnover)
# Conditions: genetic background: wild type; temperature: 30 C
# Experimental: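 Multiplexed protein stability (MPS) profiling in S. cerevisiae. Random 12-aa peptides (tFT-X12 library) are fused to the C-terminus of a sfGFP-mCherry tandem fluorescent timer, after mCherry and a GGGS linker. Cells are FACS-sorted into 8 mCherry/sfGFP bins and deep-sequenced. The protein stability index (PSI) is the read-weighted bin average, scaled from 0 (unstable) to 1 (stable). Only peptides with >10 reads are reported; cells were grown at 30 °C in SC-His with glucose.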
# 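Also: PSI is a weighted mean of sequencing reads over stability bins, variants kept only with over 10 reads, mCherry proximal and sfGFP distal, peptide attached via GGGS linker.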
row,Sequence,protein stability index
1,CTCGDFHRAWVS,0.667 ± 0.01
2,CTCTVSMLPRTC,0.639 ± 0.017
3,CTFSGSHGSFPS,0.717 ± 0.028
4,CTHYFSNSCLLR,0.604 ± 0.063
5,CTICQLASKAIC,0.599 ± 0.04
6,CTRGVVSPKLFV,0.786 ± 0.17
7,CTRLSQTSMGRG,0.696 ± 0.043
8,CTSCDVFVFCPF,0.708 ± 0.036
9,CVAFLPISSFTS,0.76 ± 0.07
10,CVAGSARVCDVR,0.627 ± 0.083
11,CVDWGAVGLVAG,0.598 ± 0.018
12,CVGFVVVGGVLG,0.667 ± 0.05
13,CVGGFLEGIRLG,0.711 ± 0.041
14,CVGVEDFFFACF,0.703 ± 0.029
15,CVVRSGIGFSLL,0.741 ± 0.026
16,CWAGKITAKIDV,0.666 ± 0.0085
17,CWRDTSSPSVLD,0.682 ± 0.041
18,CYCTYHDQDSVS,0.757 ± 0.032
19,CYLKGSGSWISG,0.718 ± 0.031
20,CYPPTRYILGYF,0.72 ± 0.06
21,DARALMGEGGSV,0.651 ± 0.016
22,DARKTKNRKDTA,0.699 ± 0.024
23,DARRAKPTRRNA,0.688 ± 0.059
24,DAWSFHNGATGA,0.676 ± 0.029
25,DCCAHLRARRLT,0.539 ± 0.035

row,Sequence,protein stability index
1,DCFSLVLRFTPV,0.64 ± 0.034
2,DCRATNTTWGLS,0.697 ± 0.18
3,DCVFLPCPRFFL,0.707 ± 0.03
4,DDSHVLILKFNW,0.691 ± 0.045
5,DERESLFPLCSG,0.725 ± 0.015
6,DETIAALYTMTD,0.615 ± 0.014
7,DEVGVGASSNVF,0.619 ± 0.037
8,DFCSVDLNLCIV,0.61 ± 0.011
9,DFGVRLGGPRTL,0.645 ± 0.017
10,DGAVRRGVGGLG,0.699 ± 0.031
11,DGCVTVDIRRGV,0.733 ± 0.016
12,DGGTSGGGVPVP,0.637 ± 0.054
13,DGKLNTASIEKV,0.684 ± 0.036
14,DGQSAKEPVGFR,0.681 ± 0.037
15,DGRGPVSPTSLR,0.662 ± 0.036
16,DGVAILPLVRIS,0.63 ± 0.031
17,DGWKERDSGVVG,0.701 ± 0.018
18,DHLTGTPPSPTV,0.72 ± 0.048
19,DIEFGLSTVVCH,0.5099 ± 0.0046
20,DIYGYENNIIKN,0.708 ± 0.013
21,DKIYNRNSKRRI,0.6418 ± 0.0055
22,DKMLDIETNNKH,0.654 ± 0.033
23,DKRPTLYSLSLS,0.621 ± 0.032
24,DKSGVYYMYSFK,0.733 ± 0.059
25,DLGSFVNSGWVT,0.706 ± 0.044

row,Sequence,protein stability index
1,DLMLSVDLNIDG,0.699 ± 0.0084
2,DLRGDYCAGARV,0.685 ± 0.028
3,DLRSQGWVALFH,0.663 ± 0.04
4,DLSCVPSVNLGM,0.682 ± 0.075
5,DLYLETSCSIGG,0.6723 ± 0.0032
6,DLYPSVWVSIGP,0.721 ± 0.019
7,DLYQRPPLPKFS,0.688 ± 0.036
8,DMSVVCDRVLFD,0.733 ± 0.034
9,DNKDRFRMFRVG,0.695 ± 0.095
10,DNVVLVRQAAFI,0.618 ± 0.066
11,DPCDVVQHPSAQ,0.657 ± 0.11
12,DPPLPLSPLTHR,0.679 ± 0.05
13,DPSQRRPDCCTY,0.729 ± 0.039
14,DPVGRSSHQFFL,0.633 ± 0.026
15,DPWPPPRTRTRT,0.682 ± 0.015
16,DQEENKRTNGTR,0.7096 ± 0.0034
17,DQIDGPCNSRTR,0.674 ± 0.023
18,DQIWHPATRIMC,0.638 ± 0.071
19,DQSLHAWSLRCT,0.771 ± 0.011
20,DRDRVLLRGYRH,0.57134 ± 0.00013
21,DRGSSRFTIGPK,0.676 ± 0.022
22,DRHWLELVGLWS,0.75 ± 0.049
23,DRLGQYSLIQRG,0.687 ± 0.022
24,DRLSSPYTLFCY,0.571 ± 0.037
25,DRRKRMLLLEHP,0.76 ± 0.054

row,Sequence,protein stability index
1,DRSQKINKKKKK,0.75 ± 0.017
2,DRSRATRSPHIN,0.703 ± 0.023
3,DRTQKIQNNKWM,0.622 ± 0.014
4,DSDIIDYKMEII,0.722 ± 0.12
5,DSGLVSRNLFLH,0.645 ± 0.18
6,DSGYRQWGGTGR,0.714 ± 0.12
7,DSILCVPCVYLY,0.629 ± 0.0084
8,DSRTLDQNRAKF,0.824 ± 0.032
9,DSSCLVWYRCGC,0.719 ± 0.083
10,DSTGFRQNGQTD,0.73 ± 0.015
11,DSTLCSCSLHTS,0.777 ± 0.12
12,DSTVGRTLRTRR,0.617 ± 0.068
13,DSVGVLVPRGFR,0.766 ± 0.045
14,DTDRRWLGTFLV,0.534 ± 0.023
15,DTLPSYPVHCRP,0.71 ± 0.014
16,DTRRHSFCSGTG,0.697 ± 0.029
17,DTSNRRFAYRRS,0.533 ± 0.12
18,DTTTQPMSYEDP,0.669 ± 0.22
19,DTYSEQRIVVTK,0.677 ± 0.012
20,DVHNCSLQAAKK,0.691 ± 0.012
21,DVLCALYFGRSK,0.707 ± 0.045
22,DVLGLSSRPFRV,0.665 ± 0.015
23,DVLSSVRGLTLL,0.678 ± 0.0082
24,DVVWRVVNDSDL,0.712 ± 0.051
25,DYLGGGARSEVD,0.745 ± 0.029

row,Sequence,protein stability index
1,EACVAAMTPKSL,0.657 ± 0.0083
2,EADRAPSGGAGN,0.673 ± 0.013
3,EAGAKEWGAKQT,0.7006 ± 0.007
4,EAGVGSGGGRCG,0.673 ± 0.058
5,EALTLLGAFYLP,0.694 ± 0.025
6,EALVVLGVGFFG,0.651 ± 0.021
7,EARLGVGRCGTG,0.67 ± 0.0098
8,EAVVWGTLLCGG,0.694 ± 0.01
9,ECAGVVRAKLPA,0.718 ± 0.05
10,ECGLGGWGGLGV,0.657 ± 0.078
11,ECIKVRGQWREI,0.662 ± 0.011
12,EDCAGIFCQSVK,0.68 ± 0.015
13,EDVPRGWACRGR,0.747 ± 0.024
14,EECSYERRRTRE,0.8059 ± 0.0017
15,EEGGTRGASAVV,0.7134 ± 0.0024
16,EEKASKSSRLKK,0.699 ± 0.036
17,EEQKAKQKQEYG,0.639 ± 0.077
18,EERVEYHVALEV,0.664 ± 0.024
19,EESAHPCRREVR,0.58988 ± 3.9e-05
20,EESKEKKKNEEE,0.63584 ± 4.9e-05
21,EEVVAQYCITLS,0.5864 ± 0.0021
22,EFLGRVPNTQDG,0.668 ± 0.078
23,EGAGSAPCMVQG,0.68 ± 0.026
24,EGDGAVGKTRGD,0.691 ± 0.042
25,EGEDRVEPGTQT,0.722 ± 0.045

row,Sequence,protein stability index
1,EGGERGSKIVDT,0.593 ± 0.029
2,EGGILHKKFTKS,0.696 ± 0.025
3,EGGKGGLVIVGG,0.709 ± 0.11
4,EGGWRLVWGRGG,0.7222 ± 0.0024
5,EGKNEFINGTTT,0.696 ± 0.023
6,EGKPALANSTVR,0.712 ± 0.052
7,EGLCFLICKERS,0.729 ± 0.025
8,EGPEGRDVVRRY,0.644 ± 0.0096
9,EGRRAVGRGRGR,0.672 ± 0.05
10,EGRTQTLPSRVT,0.638 ± 0.05
11,EGVWIVMFCGLL,0.504 ± 0.11
12,EIAGKGFRLGEW,0.74 ± 0.052
13,EIKNKENKLKKT,0.684 ± 0.03
14,EILGFVFGFFFL,0.5711 ± 0.0016
15,EIRPRPYLCERF,0.7253 ± 0.0064
16,EISKKKKQTKRK,0.768 ± 0.12
17,EIVTTEINKKTN,0.7115 ± 0.004
18,EKEGPDRGECGL,0.682 ± 0.0089
19,EKGRERREGGRK,0.749 ± 0.044
20,EKKEKKETTDTE,0.693 ± 0.023
21,EKKKEKKGKKRE,0.683 ± 0.029
22,EKLVAERGMYAT,0.684 ± 0.041
23,EKQKIIRSGCES,0.746 ± 0.16
24,EKRDRKKNPRGS,0.744 ± 0.1
25,EKSEKSRGNRYV,0.72 ± 0.076

row,Sequence,protein stability index
1,EKTKEHRNDSQR,0.695 ± 0.014
2,EKVGVTVLLRHV,0.679 ± 0.038
3,ELGARGGRGGGR,0.739 ± 0.038
4,ELGGRGPGGWVG,0.7149 ± 0.0041
5,ELGLGGCGGLGV,0.7 ± 0.03
6,ELGSIYDGWARA,0.691 ± 0.011
7,ELKGRQLGSNLK,0.691 ± 0.045
8,ELKKKYNEKKRI,0.6885 ± 0.002
9,ELKVVVTPLVPS,0.588 ± 0.053
10,EMGGLKACWGVG,0.572 ± 0.022
11,EMPQNSKKNQAA,0.672 ± 0.06
12,EMRAGNWWGREG,0.728 ± 0.054
13,ENKGKKITITNE,0.625 ± 0.018
14,ENPIASQWVRRY,0.6737 ± 0.0039
15,ENQGEKKKKKKR,0.703 ± 0.022
16,ENRERVVENLRD,0.715 ± 0.04
17,ENRGSGLQACGA,0.716 ± 0.1
18,EPASLTVFEGTS,0.587 ± 0.022
19,EPPGWGRGTAQG,0.623 ± 0.07
20,EPPQPPSLPPLF,0.739 ± 0.0085
21,EQFQLCAREVAK,0.761 ± 0.047
22,EQICNCKIIMVE,0.5669 ± 0.003
23,EQVTCGGIRVGQ,0.656 ± 0.086
24,ERCLRYRTVVDW,0.632 ± 0.063
25,ERGACPGLRQLN,0.649 ± 0.015

row,Sequence,protein stability index
1,ERGLATGRGGWV,0.733 ± 0.064
2,ERGSRKKKDRRR,0.639 ± 0.01
3,ERIGAREQPSAT,0.7075 ± 0.0056
4,ERKKKNPSTTRR,0.684 ± 0.0086
5,ERNEERKATTRS,0.726 ± 0.067
6,ERNKQNVTQKVK,0.723 ± 0.028
7,ERPIRPQCVHRM,0.73 ± 0.015
8,ERPRRDTTVSDT,0.653 ± 0.0083
9,ERQSMNKRERNP,0.683 ± 0.023
10,ERRKQDERKRRV,0.7059 ± 0.00075
11,ERRSGGHCRKSG,0.685 ± 0.036
12,ERTKKKRRKEKH,0.663 ± 0.011
13,ERVWRAALAPVV,0.618 ± 0.045
14,ERWGGSGGGCAA,0.67 ± 0.051
15,ESFFHIKPVLYI,0.647 ± 0.058
16,ESFGGKAGRDSM,0.772 ± 0.049
17,ESFLLSLNLLSY,0.6155 ± 0.0037
18,ESNRHSHVVGPA,0.683 ± 0.013
19,ESSPQPIPSRLA,0.707 ± 0.016
20,ESYRTYNSIQVY,0.518 ± 0.015
21,ETNSSSEFPLNF,0.755 ± 0.0089
